Assay results published in patent US20140056903A1 (Regeneron, published 2014).

T1: human GFRα3 on HEK293/hGFRα3/hRET/SRE-luc cells (human, UniProt O60609 32-382)
T1 sequence: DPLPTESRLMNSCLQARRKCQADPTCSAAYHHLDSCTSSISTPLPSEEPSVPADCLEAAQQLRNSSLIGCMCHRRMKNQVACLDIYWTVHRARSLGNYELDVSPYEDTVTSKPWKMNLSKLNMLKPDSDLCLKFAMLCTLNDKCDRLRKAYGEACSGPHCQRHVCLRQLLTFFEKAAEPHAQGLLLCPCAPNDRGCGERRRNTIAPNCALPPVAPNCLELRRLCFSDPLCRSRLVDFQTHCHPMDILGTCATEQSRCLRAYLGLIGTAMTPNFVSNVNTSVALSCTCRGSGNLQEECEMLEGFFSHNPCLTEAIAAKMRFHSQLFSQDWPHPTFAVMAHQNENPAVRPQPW

T2: monkey GFRα3 expressed with a C-terminal myc-myc-hexahistidine tag (monkey (Mf), UniProt O60609 32-374 (human entry), limits assumed)
T2 construct: also called MfGFRα3-mmh; MfGFRα3-mmH
T2 chain: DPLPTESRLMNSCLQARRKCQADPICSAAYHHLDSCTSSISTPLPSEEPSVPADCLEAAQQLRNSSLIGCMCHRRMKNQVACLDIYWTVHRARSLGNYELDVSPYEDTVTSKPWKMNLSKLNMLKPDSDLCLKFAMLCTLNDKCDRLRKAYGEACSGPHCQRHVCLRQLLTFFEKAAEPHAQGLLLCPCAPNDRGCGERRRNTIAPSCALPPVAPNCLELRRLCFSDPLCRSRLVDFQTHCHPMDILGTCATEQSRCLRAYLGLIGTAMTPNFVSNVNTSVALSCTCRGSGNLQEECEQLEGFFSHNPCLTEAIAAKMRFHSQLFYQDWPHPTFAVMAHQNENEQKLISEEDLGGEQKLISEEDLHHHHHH


Legend:
[1] = biological target: T1, human GFRα3 on …; experiment: cell-based or functional assay
[2] = biological target: T2, monkey GFRα3 expressed with a …; experiment: SPR, Ab captured, 25C
Protocol: (§1) Antibodies were tested for binding to human GFRα3 expressed with either a C-terminal myc-myc-hexahistidine tag (hGFRα3-mmh; SEQ ID: 370, a C-terminal hFc tag (hGFRα3-hFc; SEQ ID:371), or a C-terminal mFc tag (hGFRα3-mFc; SEQ ID:372), as well as monkey GFRα3 expressed with a C-terminal myc-myc-hexahistidine tag (MfGFRα3-mmh; SEQ ID:373). Anti-GFRα3 antibodies were captured on either a goat anti-mouse IgG polyclonal antibody (GE Healthcare, #BR-1008-38) or a mouse anti-human IgG monoclonal antibody (GE Healthcare, #BR-1008-39) surface created through direct amine coupling to a Biacore CM5 sensor chip. Kinetic experiments were carried out using HBS-EP (10 mM HEPES, 150 mM NaCl, 3 mM EDTA, 0.05% Surfactant P20, at pH 7.4) or PBS buffer containing 0.05% v/v surfactant P20 as both the running buffer and the sample buffer. Binding to human GFRα3-mmh or monkey GFRα3-mmh was evaluated by injecting several concentrations ranging from 200 to 7.4 nM (3-fold dilutions) across the captured antibody surface. Binding to human GFRα3-mFc or human GFRα3-hFc was evaluated by injecting several concentrations ranging from 100 to 3.7 nM (3-fold dilutions) across the captured antibody surface. Antibody-antigen association was monitored for up to 4 minutes, while dissociation in buffer was monitored for up to 20 minutes. Kinetic association (kₐ) and dissociation (kd) rate constants were determined by processing and fitting the data to a 1:1 binding model using Scrubber 2.0c curve fitting software. Binding dissociation equilibrium constants (KD) and dissociative half-lives (t_{1/2}) were calculated from the kinetic rate constants as: KD (M)=kd/kₐ and t_{1/2} (min)=[ln 2/(60*kd)].

[3] = biological target: T3, human GFRα3 expressed with a C-terminal myc-myc-hexahistidine tag (human, UniProt O60609 32-374, biotinylated (sites not given) in ELISA format 2 and in the Octet cross-competition; not in SPR); experiment: SPR, Ab captured, 25C
T3 construct: also called hGFRα3-mmh; hGFRα3-mmH
Protocol: as §1

[4] = biological target: T4, human GFRα3 expressed with a C-terminal hFc tag (human); experiment: SPR, Ab captured, 25C
T4 construct: also called hGFRα3-hFc
Protocol: as §1

[5] = biological target: T2, monkey GFRα3 expressed with a …; experiment: SPR, Ab captured, 37C
Protocol: as §1

[6] = biological target: T3, human GFRα3 expressed with a C-terminal …; experiment: SPR, Ab captured, 37C
Protocol: as §1

[7] = biological target: T4, human GFRα3 expressed with a C-terminal …; experiment: SPR, Ab captured, 37C
Protocol: as §1

| Kd [2] [nM] | koff [2] [s⁻¹] | kon [2] [M⁻¹ s⁻¹] | t1/2 [2] [min] | Kd [3] [nM] | koff [3] [s⁻¹] | kon [3] [M⁻¹ s⁻¹] | t1/2 [3] [min] | Kd [4] [nM] | koff [4] [s⁻¹] | kon [4] [M⁻¹ s⁻¹] | t1/2 [4] [h] | Kd [5] [nM] | koff [5] [s⁻¹] | kon [5] [M⁻¹ s⁻¹] | t1/2 [5] [min] | Kd [6] [nM] | koff [6] [s⁻¹] | kon [6] [M⁻¹ s⁻¹] | t1/2 [6] [min] | Binder | other results |
| --- | --- | --- | --- | --- | --- | --- | --- | --- | --- | --- | --- | --- | --- | --- | --- | --- | --- | --- | --- | --- | --- |
| 28.9 | 0.0012 | 41600 | 10 | 12.8 | 0.000863 | 67300 | 13 | 0.22 | 3.69e-05 | 168000 | 5.22 | 76.4 | 0.00618 | 80900 | 2 | 15.8 | 0.00335 | 212000 | 3 | H2aM2210N (antibody, mouse IgG2, V domains shown, chimeric, mouse IgG2 Fc (H2M/H2aM); also called H2M2210N) VH: EVQLLESGGGLVQPGGSLRVSCAASGFTFSTSAMSWVRQAPGKGLEWVSGISGIGGGSTYYADSVKGRFTISRDNSKNTLYLQMNSLRAEDTAVYFCAKFYKWNSYIFDLWGQGTMVTVSS VL: EIVLTQSPDTLSLSPGERATLSCRASQSVSSSYFAWYQQKPGQAPRLLMYSASSRATGIPDRFSGSGSGTDFSLTISRLEPEDFAVYYCQQYGRSLTFGGGTKVEIK | Kd [7]: 0.242 nM; koff [7]: 7.66e-05 s⁻¹; kon [7]: 316000 M⁻¹ s⁻¹; t1/2 [7]: 151 min |
| 1.34 | 0.000571 | 427000 | 20 | 1.08 | 0.000711 | 657000 | 16 | 0.101 | 9.6e-05 | 950000 | 2 | 4.91 | 0.00211 | 429000 | 5 | 3.43 | 0.00272 | 793000 | 4 | H2aM2234N (antibody, mouse IgG2, V domains shown, chimeric, mouse IgG2 Fc (H2M/H2aM); also called H2M2234N) VH: EVQLLESGGGLVQSGGSLRLSCAASGFSFNNYAMSWVRQAPGKGLEWVSFISGSGGSTYYADSVKGRFTISRDNSKNTLYLQMNSLRVEDTAVFYCAKDRYNYGTFFDYWGQGTLVTVSS VL: not shown | Kd [7]: 0.116 nM; koff [7]: 0.000146 s⁻¹; kon [7]: 1.26e+06 M⁻¹ s⁻¹; t1/2 [7]: 79 min |
| 10.2 | 0.000658 | 64600 | 18 | 2.04 | 0.000261 | 128000 | 44 | ≤ 0.0075 | ≤ 1e-06 | 134000 | 192 | 54.7 | 0.00275 | 50200 | 4 | 4.35 | 0.000595 | 137000 | 19 | H1M2243N (antibody, V domains shown, chimeric, human variable and mouse constant domains (H1M)) VH: QVQLVQSGAEVKKPGASVKVSCKASGYTFTSYGIIWVRQAPGQGLEWMGWISGYNGNTNYTQNLQGRVTMTTDTSTTTAYMELRSLRSDDTAVYYCARWGIATRPYYYYGMDVWGQGTTVTVSS VL: DIQMTQSPSSLSASVGDRVTITCRASQDITNYLAWFQQKPGKAPKSLIYAASSLQSGVPSKFSGSGSGTDFTLTISSLQPEDFATYYCQQYNSYPPTFGPGTKVDIK | Kd [7]: 0.117 nM; koff [7]: 2.18e-05 s⁻¹; kon [7]: 186000 M⁻¹ s⁻¹; t1/2 [7]: 529 min |

The next lines start with the binder.

| Binder | Kd [2] [nM] | koff [2] [s⁻¹] | kon [2] [M⁻¹ s⁻¹] | t1/2 [2] [min] | Kd [3] [nM] | koff [3] [s⁻¹] | kon [3] [M⁻¹ s⁻¹] | t1/2 [3] [min] | Kd [4] [nM] | koff [4] [s⁻¹] | kon [4] [M⁻¹ s⁻¹] | t1/2 [4] [h] | Kd [5] [nM] | koff [5] [s⁻¹] | kon [5] [M⁻¹ s⁻¹] | t1/2 [5] [min] | Kd [6] [nM] | koff [6] [s⁻¹] | kon [6] [M⁻¹ s⁻¹] | t1/2 [6] [min] | other results |
| --- | --- | --- | --- | --- | --- | --- | --- | --- | --- | --- | --- | --- | --- | --- | --- | --- | --- | --- | --- | --- | --- |
| H4H2210N (antibody, human IgG4, V domains shown) VH: EVQLLESGGGLVQPGGSLRVSCAASGFTFSTSAMSWVRQAPGKGLEWVSGISGIGGGSTYYADSVKGRFTISRDNSKNTLYLQMNSLRAEDTAVYFCAKFYKWNSYIFDLWGQGTMVTVSS VL: EIVLTQSPDTLSLSPGERATLSCRASQSVSSSYFAWYQQKPGQAPRLLMYSASSRATGIPDRFSGSGSGTDFSLTISRLEPEDFAVYYCQQYGRSLTFGGGTKVEIK |  |  |  |  |  |  |  |  |  |  |  |  |  |  |  |  |  |  |  |  | IC50 (SRE-luc, HEK293/hGFRα3/hRET cells, 100 pM hARTEMIN-mmH) [1]: 2.9 nM |
| H1M2236N (antibody, V domains shown, chimeric, human variable and mouse constant domains (H1M)) VH: EVQLLESGGNLVQPGGSLRLSCAASGFTFSSYAMTWVRQAPGKGLEWVSTISGSGTSTYYADSVKGRFTISRDNSRDTVFLQMNSLRAEDTAVYYCSKPSALRFLHWLCMDVWGQGTLVTVSS VL: DIQMTQSPSSLSAFVGDRVTITCRASQDIRNYLDWFQQKPGKAPKSLIYAASNLQSGVPSRFGGSGSGTDFTLTINSLQPEDFVTYYCQQYNSYPPTFGGGTKVEIK | 0.97 | 0.000286 | 296000 | 40 | 0.275 | 0.000208 | 760000 | 56 | 0.0137 | 1.76e-05 | 1.28e+06 | 11 | 2.58 | 0.00112 | 434000 | 10 | 0.532 | 0.00055 | 1.03e+06 | 21 | Kd [7]: 0.061 nM; koff [7]: 9.65e-05 s⁻¹; kon [7]: 1.58e+06 M⁻¹ s⁻¹; t1/2 [7]: 120 min |
| H1M2207N (antibody, V domains shown, chimeric, human variable and mouse constant domains (H1M)) VH: EVQLVESGGGLVQPGRSLRLSCAASGFTFNDYAMHWVRQAPGKGLEWVSGISWNSGNIGYADSVKGRFTISRDNAKNSLYLQMNSLRAEDTALYFCARDTRMATRPFDYWGQGTLVTVSS VL: not shown | 97.2 | 0.00388 | 39900 | 3 | 16 | 0.0009 | 56100 | 13 | 0.163 | 2.6e-05 | 159000 | 7.4 | 145 | 0.00663 | 45800 | 2 | 10.8 | 0.00144 | 133000 | 8 | Kd [7]: 0.531 nM; koff [7]: 0.000108 s⁻¹; kon [7]: 203000 M⁻¹ s⁻¹; t1/2 [7]: 107 min |
| H1M2212N (antibody, V domains shown, chimeric, human variable and mouse constant domains (H1M)) VH: EVQLLESGGGLVQPGGSLRLSCAASGFTFSSYAMSWVRQGPGKGLEWVSGISGSGGSTYNADSVKGRFTISRDNSKNTLYLQMNSLRAEDTAVYYCAKDSGTYWYYFDYWGQGILVTVSS VL: not shown | 0.293 | 0.000112 | 384000 | 103 | 0.197 | 0.000158 | 800000 | 73 | 0.0128 | 1.44e-05 | 1.12e+06 | 13.3 | 0.294 | 0.00026 | 884000 | 44 | 0.297 | 0.000303 | 1.02e+06 | 38 | Kd [7]: 0.0413 nM; koff [7]: 6.17e-05 s⁻¹; kon [7]: 1.49e+06 M⁻¹ s⁻¹; t1/2 [7]: 187 min |
